B1: IKZF1 (parent)
chain: RDPFECNMCGYHSQDRYEFSSHIT

Variants of: B1
Experiment: protein stability index of a GFP-peptide fusion (GPS, HEK-293T) (PSI 1-6); higher = more stable
Conditions: c terminus: a fixed tail appended
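Note: lentivirally expressed fusions sorted by FACS into six bins by GFP to DsRed ratio, PSI derived from sequencing read proportions per bin multiplied by bin number.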

Variant | protein stability index
RDPFECNMDGYHSQDRYEFSSHIT [C9D] | 3.83
RDPFECNMRGYHSQDRYEFSSHIT [C9R] | 3.24
RDPFECNMEGYHSQDRYEFSSHIT [C9E] | 3.7
RDPFECNMVGYHSQDRYEFSSHIT [C9V] | 3.06
RDPFECNMQGYHSQDRYEFSSHIT [C9Q] | 2.57
RDPFECNMMGYHSQDRYEFSSHIT [C9M] | 3.06
RDPFECNMGGYHSQDRYEFSSHIT [C9G] | 3.02
RDPFECNMTGYHSQDRYEFSSHIT [C9T] | 3.55
RDPFECNMAGYHSQDRYEFSSHIT [C9A] | 2.98
RDPFECNMNGYHSQDRYEFSSHIT [C9N] | 3.28
RDPFECNMKGYHSQDRYEFSSHIT [C9K] | 3.19
RDPFECNMHGYHSQDRYEFSSHIT [C9H] | 2.63
RDPFECNMIGYHSQDRYEFSSHIT [C9I] | 3.08
RDPFECNMYGYHSQDRYEFSSHIT [C9Y] | 2.63
RDPFECNMFGYHSQDRYEFSSHIT [C9F] | 2.34
RDPFECNMSGYHSQDRYEFSSHIT [C9S] | 3.42
RDPFECNMPGYHSQDRYEFSSHIT [C9P] | 3.09
RDPFECNMLGYHSQDRYEFSSHIT [C9L] | 3.05
RDPFECNMWGYHSQDRYEFSSHIT [C9W] | 2.36
RDPFECNDCGYHSQDRYEFSSHIT [M8D] | 3.11
RDPFECNQCGYHSQDRYEFSSHIT [M8Q] | 2.21
RDPFECNWCGYHSQDRYEFSSHIT [M8W] | 2.34
RDPFECNPCGYHSQDRYEFSSHIT [M8P] | 2.64
RDPFECNRCGYHSQDRYEFSSHIT [M8R] | 2.02

Variant | protein stability index
RDPFECNECGYHSQDRYEFSSHIT [M8E] | 3.08
RDPFECNSCGYHSQDRYEFSSHIT [M8S] | 2.4
RDPFECNCCGYHSQDRYEFSSHIT [M8C] | 2.19
RDPFECNGCGYHSQDRYEFSSHIT [M8G] | 2.07
RDPFECNTCGYHSQDRYEFSSHIT [M8T] | 2.39
RDPFECNACGYHSQDRYEFSSHIT [M8A] | 1.81
RDPFECNICGYHSQDRYEFSSHIT [M8I] | 2.16
RDPFECNVCGYHSQDRYEFSSHIT [M8V] | 2.3
RDPFECNHCGYHSQDRYEFSSHIT [M8H] | 2.17
RDPFECNLCGYHSQDRYEFSSHIT [M8L] | 2.18
RDPFECNFCGYHSQDRYEFSSHIT [M8F] | 2.23
RDPFECNKCGYHSQDRYEFSSHIT [M8K] | 2.52
RDPFECNYCGYHSQDRYEFSSHIT [M8Y] | 2.4
RDPFECNNCGYHSQDRYEFSSHIT [M8N] | 2.54
RDPFYCNMCGYHSQDRYEFSSHIT [E5Y] | 1.85
RDPFENNMCGYHSQDRYEFSSHIT [C6N] | 2.56
RDPFEYNMCGYHSQDRYEFSSHIT [C6Y] | 2.04
RDPFEINMCGYHSQDRYEFSSHIT [C6I] | 2.14
RDPFEANMCGYHSQDRYEFSSHIT [C6A] | 2.5
RDPFESNMCGYHSQDRYEFSSHIT [C6S] | 2.5
RDPFEENMCGYHSQDRYEFSSHIT [C6E] | 3.58
RDPFEHNMCGYHSQDRYEFSSHIT [C6H] | 2.43
RDPFEPNMCGYHSQDRYEFSSHIT [C6P] | 2.23
RDPFEQNMCGYHSQDRYEFSSHIT [C6Q] | 2.38

Variant | protein stability index
RDPFELNMCGYHSQDRYEFSSHIT [C6L] | 1.99
RDPFEVNMCGYHSQDRYEFSSHIT [C6V] | 2.5
RDPFEWNMCGYHSQDRYEFSSHIT [C6W] | 2.5
RDPFEDNMCGYHSQDRYEFSSHIT [C6D] | 3.8
RDPFEGNMCGYHSQDRYEFSSHIT [C6G] | 2.3
RDPFEKNMCGYHSQDRYEFSSHIT [C6K] | 2.49
RDPFETNMCGYHSQDRYEFSSHIT [C6T] | 3.21
RDPFEMNMCGYHSQDRYEFSSHIT [C6M] | 2.02
RDPFEFNMCGYHSQDRYEFSSHIT [C6F] | 1.96
RDPFERNMCGYHSQDRYEFSSHIT [C6R] | 2.06
RDPFECFMCGYHSQDRYEFSSHIT [N7F] | 1.33
RDPFECLMCGYHSQDRYEFSSHIT [N7L] | 1.79
RDPFECYMCGYHSQDRYEFSSHIT [N7Y] | 1.83
RDPFECSMCGYHSQDRYEFSSHIT [N7S] | 1.72
RDPFECQMCGYHSQDRYEFSSHIT [N7Q] | 2.01
RDPFECGMCGYHSQDRYEFSSHIT [N7G] | 2.25
RDPFECMMCGYHSQDRYEFSSHIT [N7M] | 1.97
RDPFECHMCGYHSQDRYEFSSHIT [N7H] | 2.25
RDPFECPMCGYHSQDRYEFSSHIT [N7P] | 3.61
RDPFECIMCGYHSQDRYEFSSHIT [N7I] | 2.05
RDPFECAMCGYHSQDRYEFSSHIT [N7A] | 1.75
RDPFECCMCGYHSQDRYEFSSHIT [N7C] | 1.89
RDPFECKMCGYHSQDRYEFSSHIT [N7K] | 2.37
RDPFECVMCGYHSQDRYEFSSHIT [N7V] | 2.04

Variant | protein stability index
RDPFECDMCGYHSQDRYEFSSHIT [N7D] | 2.51
RDPFECEMCGYHSQDRYEFSSHIT [N7E] | 2.29
RDPFECWMCGYHSQDRYEFSSHIT [N7W] | 1.93
RDPFECRMCGYHSQDRYEFSSHIT [N7R] | 1.49
RDPFECTMCGYHSQDRYEFSSHIT [N7T] | 2.18
RDPFECNMCIYHSQDRYEFSSHIT [G10I] | 1.92
RDPFECNMCHYHSQDRYEFSSHIT [G10H] | 2.33
RDPFECNMCLYHSQDRYEFSSHIT [G10L] | 2.08
RDPFECNMCCYHSQDRYEFSSHIT [G10C] | 2.49
RDPFECNMCMYHSQDRYEFSSHIT [G10M] | 1.82
RDPFECNMCFYHSQDRYEFSSHIT [G10F] | 1.81
RDPFECNMCPYHSQDRYEFSSHIT [G10P] | 2.44
RDPFECNMCTYHSQDRYEFSSHIT [G10T] | 2.69
RDPFECNMCVYHSQDRYEFSSHIT [G10V] | 2.07
RDPFECNMCRYHSQDRYEFSSHIT [G10R] | 2.13
RDPFECNMCEYHSQDRYEFSSHIT [G10E] | 2.79
RDPFECNMCKYHSQDRYEFSSHIT [G10K] | 2.32
RDPFECNMCQYHSQDRYEFSSHIT [G10Q] | 2.58
RDPFECNMCNYHSQDRYEFSSHIT [G10N] | 2.4
RDPFECNMCSYHSQDRYEFSSHIT [G10S] | 2.7
RDPFECNMCDYHSQDRYEFSSHIT [G10D] | 2.8
RDPFECNMCAYHSQDRYEFSSHIT [G10A] | 2.16

— the supplement of paper PMC10567573
